Positions count from the first letter of the chain named. In names and notes the source's numbering stands. Several values for one entry are separate records, joined by “and”; a condition that tells them apart may be missing. Equal values may be shown once.

We go through three molecules from publication PMC5418834, “Structural analysis of X-linked retinoschisis mutations reveals distinct classes which differentially effect retinoschisin function” (Human Molecular Genetics, 2016).

Series [1] concerns the target wild-type human retinoschisin (human) (UniProt O15537). Kind of series: cryo-EM structure; 0.1 mg/ml of octamer vitrified on C-Flat R2/2 grids; C8 (wild type) or D8 (R141H) symmetry.
The target is the same in series [2]. Kind of series: AUC; sedimentation velocity of the octamer fraction, ~0.1 mg/ml, 10 mM Tris pH 7.4, 150 mM NaCl, 20°C, 45,000 rpm.
For series [3] the target is unchanged. Kind of series: native gel or EMSA; blue-native PAGE and native blot of purified retinoschisin (H207Q at ~0.1 mg/ml). Background: Mobility shift assays separate free from complexed probe on a gel.
Series [4] shares this target. Kind of series: negative-stain EM; 20 µg/ml octamer on carbon coated grids, uranyl acetate, reference-free class averages.
For series [5] the target is unchanged. The series can be described thus: SEC-MALS; octamer fraction; 10 mM Tris pH 7.4, 150 mM NaCl.
Series [6] concerns the molecule itself. The series can be described thus: native gel or EMSA; blue-native PAGE and native blot of purified retinoschisin (H207Q at ~0.1 mg/ml).
Series [7] concerns the molecule itself. The series can be described thus: SEC-MALS; octamer fraction; 10 mM Tris pH 7.4, 150 mM NaCl. (In general: In gel filtration, larger molecules generally elute earlier.)
Series [8] concerns the molecule itself. The series can be described thus: negative-stain EM; 20 µg/ml octamer on carbon coated grids, uranyl acetate, reference-free class averages.

As for “wild-type human retinoschisin (from UniProt O15537 24-224) (natural protein)”, the stoichiometry N (usually the number of molecules, sites or subunits per partner or assembly) was 8 and 16 in series [1]; 8 in series [2]; 8 and 16 in series [3]; 8 in series [4]; 8 in series [5].

B1: R141H human retinoschisin (natural protein, UniProt O15537 24-224, looked up)
chain: STEDEGEDPWYQKACKCDCQGGPNALWSAGATSLDCIPECPYHKPLGFESGEVTPDQITCSNPEQYVGWYSSWTANKARLNSQGFGCAWLSKFQDSSQWLQIDLKEIKVISGILTQGHCDIDEWMTKYSVQYRTDERLNWIYYKDQTGNNRVFYGNSDRTSTVQNLLRPPIISRFIRLIPLGWHVRIAIRMELLECVSKCA
notes: retinoschisin, human, product of the RS1 gene, with the XLRS-associated mutation R141H; Disease-causing (XLRS) mutation that occurs in patients; Same construct as m1 apart from the mutation; also called R141H retinoschisin; R141H mutant
For the molecule B1, the “stoichiometry N” value worked out at 16 in series [6] and 8 in series [7].

B2: H207Q human retinoschisin (natural protein, UniProt O15537 24-224, looked up)
chain: B1 chain with H118R, H184Q
notes: retinoschisin, human, product of the RS1 gene, with the XLRS-associated mutation H207Q; Disease-causing (XLRS) mutation that occurs in patients; Same construct as m1 apart from the mutation; also called H207Q retinoschisin; H207Q mutant
Consider B2, for which the figures for the “stoichiometry N” value in series [8] and in series [6] were 8 and 16, respectively.
